Measured values taken from patent publication US20100233173A1 (AstraZeneca / MedImmune, published 2010).

Target: T1, EphA2 (human, UniProt P29317 25-534, limits assumed)
T1 construct: also called biotinylated EphA2; soluble EphA2 antigen
Experiment: BIAcore, ovalbumin immobilised, antigens injected one after the other
Protocol: FIG. 36. […] The upper curve represents the binding activity of three distinct epitope binding domains present on multispecific epitope binding protein “P1” represented in FIG. […]. Soluble EB, EA, and EphA2 antigens were added to immobilized P1 and the relative binding was measured. The three distinct inflections referenced by the arrows corresponding to the three antigens indicates binding to the immobilized P1. Ovalbumin (bottom curve) was used as a negative control.
Methods: Triple-specific binding ability of P1 (FIG. 3D) was assessed by BIAcore by injecting the three antigens EB, EA and EphA2 sequentially over a P1-coated chip. When the P1 epitope had been saturated with the first antigen (EB), the second antigen (EA) was injected, followed by the injection of the third antigen (EphA2). Ovalbumin was used as a negative binding control.

T1 sequence (P29317 25-534 limits assumed): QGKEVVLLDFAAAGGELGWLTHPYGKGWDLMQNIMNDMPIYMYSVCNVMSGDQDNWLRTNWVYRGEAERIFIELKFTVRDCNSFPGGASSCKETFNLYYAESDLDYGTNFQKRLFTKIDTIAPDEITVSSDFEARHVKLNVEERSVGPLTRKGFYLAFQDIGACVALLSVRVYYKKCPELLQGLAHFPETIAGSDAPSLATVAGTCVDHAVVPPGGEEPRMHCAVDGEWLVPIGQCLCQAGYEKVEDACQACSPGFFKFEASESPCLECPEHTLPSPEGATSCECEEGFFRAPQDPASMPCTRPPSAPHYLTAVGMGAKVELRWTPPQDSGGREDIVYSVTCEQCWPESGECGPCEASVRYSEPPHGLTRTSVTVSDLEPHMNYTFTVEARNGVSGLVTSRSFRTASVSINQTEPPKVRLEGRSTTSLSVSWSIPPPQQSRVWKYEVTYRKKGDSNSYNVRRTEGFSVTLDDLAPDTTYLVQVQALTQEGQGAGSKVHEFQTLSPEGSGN

B1: Ovalbumin (other, UniProt P01012 2-386, looked up)
chain: GSIGAASMEFCFDVFKELKVHHANENIFYCPIAIMSALAMVYLGAKDSTRTQINKVVRFDKLPGFGDSIEAQCGTSVNVHSSLRDILNQITKPNDVYSFSLASRLYAEERYPILPEYLQCVKELYRGGLEPINFQTAADQARELINSWVESQTNGIIRNVLQPSSVDSQTAMVLVNAIVFKGLWEKAFKDEDTQAMPFRVTEQESKPVQMMYQIGLFRVASMASEKMKILELPFASGTMSMLVLLPDEVSGLEQLESIINFEKLTEWTSSNVMEERKIKVYLPRMKMEEKYNLTSVLMAMGITDVFSSSANLSGISSAESLKISQAVHAAHAEINEAGREVVGSAEAGVDAASVSEEFRADHPFLFCIKHIATNAVLFFGRCVSP
notes: also called immobilized ovalbumin
- binding result: no binding
